Our source for the stoichiometry N values is paper PMC9116133.

Usually stoichiometry N stands for a count of units in the complex or per binding partner.

Assay [1] deals with truncated zymogen of histo-aspartic protease (pro-tHAP) (P. falciparum). The experiment in a line: crystal structure.
The target of assay [2] is truncated zymogen of plasmepsin I (pro-tPMI) (P. falciparum). The experiment in a line: SAXS.
The target in assay [3] is truncated zymogen of plasmepsin II, wild type (pro-tPMII) (P. falciparum). The experiment in a line: SEC.

In assay [1], “truncated zymogen of histo-aspartic protease (pro-tHAP) (enzyme)” displayed a stoichiometry N of 2. Regarding “truncated zymogen of plasmepsin I (pro-tPMI) (enzyme)”, in assay [2], the stoichiometry N was determined as 2. “truncated zymogen of plasmepsin II, wild type (pro-tPMII) (enzyme)”: the stoichiometry N in assay [3] was 2.
